The target in test [1] is human PD-1 on 293T cells stably transfected with human PD-1 (human, UniProt Q15116). The experiment in a line: flow cytometry on cells.
Test [2] has as its target recombinant human PD-1 extracellular domain (ECD) fusion protein (human, UniProt Q15116). Briefly: ELISA. In general terms: In an ELISA, binding on a coated surface is turned into a signal by an enzyme label.
Test [3] has as its target refolded PD-1 protein (L25-R147) expressed in E. coli (Homo sapiens, UniProt Q15116). Briefly: SPR. On the technique in general: In SPR one partner is held on a chip, and binding of the other changes the refractive index at the surface.

Where “and” joins values, the source holds several entries; their conditions need not be identical. Identical values can stand only once.

The IC50 is the midpoint of a concentration-inhibition curve. For orientation: Kd means the constant that tells how readily two partners part at equilibrium.

Chain of human PD-1 on 293T cells stably transfected with human PD-1 (Q15116 25-288): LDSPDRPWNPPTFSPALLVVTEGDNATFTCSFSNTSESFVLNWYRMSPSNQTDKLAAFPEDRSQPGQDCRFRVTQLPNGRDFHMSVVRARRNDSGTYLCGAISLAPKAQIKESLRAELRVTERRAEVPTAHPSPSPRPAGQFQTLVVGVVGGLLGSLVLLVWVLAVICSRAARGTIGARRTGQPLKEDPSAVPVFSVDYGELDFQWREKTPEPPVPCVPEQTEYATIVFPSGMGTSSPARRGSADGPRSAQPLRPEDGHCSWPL
Chain of recombinant human PD-1 extracellular domain (ECD) fusion protein (Q15116 25-170): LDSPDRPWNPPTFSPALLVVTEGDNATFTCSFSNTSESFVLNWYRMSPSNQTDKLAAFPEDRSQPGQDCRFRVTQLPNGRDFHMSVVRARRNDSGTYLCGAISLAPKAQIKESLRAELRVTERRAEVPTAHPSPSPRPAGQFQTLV
Chain of refolded PD-1 protein (L25-R147) expressed in E. coli (Q15116 25-147): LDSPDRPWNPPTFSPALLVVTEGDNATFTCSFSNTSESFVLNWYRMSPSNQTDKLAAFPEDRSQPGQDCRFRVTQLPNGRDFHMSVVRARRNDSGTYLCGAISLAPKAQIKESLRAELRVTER

B1: toripalimab (antibody, V domains shown)
VH: QGQLVQSGAEVKKPGASVKVSCKASGYTFTDYEMHWVRQAPIHGLEWIGVIESETGGTAYNQKFKGRVTITADKSTSTAYMELSSLRSEDTAVYYCAREGITTVATTYYWYFDVWGQGTTVTVSS
VL: DVVMTQSPLSLPVTLGQPASISCRSSQSIVHSNGNTYLEWYLQKPGQSPQLLIYKVSNRFSGVPDRFSGSGSGTDFTLKISRVEAEDVGVYYCFQGSHVPLTFGQGTKLEIK
For B1, the IC50 is 1.3 nM and 3.7 nM in test [1]; 0.8 nM and 1.3 nM in test [2]. This molecule also yielded a Kd in test [3] of 0.324 nM.

(Values after paper PMC6601540 (mAbs, 2019).)
